Test results from US20150266949A1 (INFLARX, published 2015).

B1: INab308 (antibody, V domains shown)
VH: QVQLQQSGPQLVRPGTSVKISCKASGYSFTTFWMDWVKQRPGQGLEWIGRIDPSDSESRLDQRFKDRATLTVDKSSSTVYMQLSSPTSEDSAVYYCARGNDGYYGFAYWGQGTLVTVSS
VL: DIVLTQSPASLAVSLGQRATISCKASQSVDYDGDSYMKWYQQKPGQPPKLLIYAASNLQSGIPARFSGSGSGTDFTLNIHPVEEEDAATYYCQQSNEDPYTFGGGTKLEIK
notes: Mouse monoclonal antibody from a hybridoma (BALB/c mice immunized with recombinant human C5a), purified from ascites on protein A; said to be bivalent
B2: INab708 (antibody, V domains shown)
VH: VQLLESGAELMKPGASVKISCKATGNTFSGYWIEWVKQRPGHGLEWIGEILPGSGSTNYNEKFKGKATLTADTSSNTAYMQLSSLTSEDSAVYYCTRRGLYDGSSYFAYWGQGTLVTVSA
VL: DIVLTQSPASLAVSLGQRATISCKASQSVDYDGDSYMNWYQQKPGQPPKLLIYAASNLGSGIPARFSGSGSGTDFTLNIHPVEEEVAATYYCQQNNEDPLTFGAGTLLELK
notes: as for B1

Key:
human C5a [1] = molecular target: T1, human C5a (human, UniProt P01031 678-751); test: cell-based or functional assay
T1 sequence: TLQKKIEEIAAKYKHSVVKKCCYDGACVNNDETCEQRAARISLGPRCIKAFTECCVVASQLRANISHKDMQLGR

human C5a [2] = molecular target: T1, human C5a; test: method not stated (Table 3, column Affinity)
human C5a [3] = molecular target: T1, human C5a; test: cell-based or functional assay; remark: listed apart in the source

Row | Binder | blocking activity to C5a bioactivity (C5a-induced lysozyme release assay), molar ratio of antibody to C5a 1:2 (human C5a [1]) [%] | Kd (human C5a [2]) [nM] | Blocking activity (inhibition of C5a-induced lysozyme release from human whole blood cells) at a ratio of Ab to C5a of ½:1 (human C5a [3]) [%]
1 | B1 | 94 | 0.5 | ≥ 90
2 | B2 | 100 | 0.51 | ≥ 90
